Experimental data: patent publication US20120196335A1, “LIGF-TYPE TRANSFORMANTS FOR BIOCONVERSION OF LIGNIN-DERIVED COMPOUNDS” (priority 2010, published 2012)

Columns and labels:
[1] = in vitro biochemical assay for beta-etherase activity on fluorescent substrate MUAV (clarified E. coli cell extracts); conditions: 0.1 mM MUAV substrate; E. coli cell extracts expressing the protein
From the text: The model substrate synthesis 150 for use in the biochemical screening for selective activity can be outsourced through a contract research organization (CRO). The enzyme discovery effort can initially be focused on identifying potential beta-etherase candidate genes identified through bioinformatic methods. […] The fluorescent substrate α-O-(β-methylumbelliferyl)acetovanillone (MUAV), for example, can be used in in vitro assays to identify beta-etherase function (Acme Biosciences, Mt. View, Calif.). The formation of 4 methylumbelliferone (4MU) upon hydrolysis of the aryl ether bond can be monitored by fluorescence, for example, at λex=365 nm and λem=450 nm (or 460 nm).
The enzyme screening 155 is done to identify novel etherases 160. […] Expression of the beta-etherase genes can be done in 5 ml or 25 ml samples of the recombinant E. coli strains in LB medium using induction with IPTG. Following induction, and cell harvest, cell pellets can be lysed using the BPER (Invitrogen) cell lysis system. […] The formation of 4 methylumbelliferone (4MU) upon hydrolysis of the aryl ether bond in MUAV can be monitored by fluorescence at λex=365 nm and λem=460 nm, and can provide quantitative measurement of beta-etherase function. Cell extracts of E. coli transformed with the S. paucimobilis ligE and ligF genes can be the assay positive controls. Test or unknown samples can include, for example, E. coli strains expressing putative beta-etherase genes from N. aromaticovorans.
This example describes a method for gene expression in E. coli, as well as beta-etherase biochemical assays. Expression of known and putative beta-etherase genes was performed using 5 ml cultures of the recombinant E. coli strains described herein in Luria Broth medium by induction of gene expression using isopropylthiogalactoside (IPTG) to a final concentration of 0.1 mM. Following induction, and cell harvest, the cells were disrupted using either sonication or the BPER (Invitrogen) cell lysis system.
In vitro reactions were performed in a total volume of 200 ul and contained: 25 mM TrisHCl pH 7.5; 0.5 mM dithiothreitol; 1 mM glutathione; 0.05 mM or 0.1 mM MUAV; 10 ul of clarified cell extract used to initiate the reactions. Following incubation for 2.5 hours at room temperature, a 50 ul sample of the reactions was terminated using 150 uL of 300 mM glycine/NaOH buffer pH 9. The formation of 4 methylumbelliferone (4MU) upon hydrolysis of the aryl ether bond was monitored by the increase in fluorescence at λex=360 nm and λem=450 nm using a Spectramax UV/visible/fluorescent spectrophotometer.
The total protein concentrations of the cell lysates were determined using the BCA reagent system for protein quantification (Pierce).
Induction might be also performed using IPTG concentrations in the range of 0.01-1 mM. Cell disruption might be also performed using toluene permeabilization, French pressure techniques, or using multiple freeze/thaw cycles in conjunction with lysozyme. Assay conditions might be varied to include TrisHCl at 10-150 mM concentrations and in the pH range of 6.5-8.5; 0-2 mM dithiothreitol; 0.05-2 mM glutathione; 0.01-5 mM MUAV substrate; 22-42° C. reaction temperatures. The biochemical assay might be performed as a fixed time point assay with reaction times ranging from 5 minutes-12 hours, or performed continuously without quenching with glycine/NaOH buffer to extract enzyme kinetic parameters.

[2] = LigDFEG gene cluster, FIG. 2B; cited from earlier work

B1: LigF: S. paucimobilis beta-etherase, positive control, GenBank BAA02031.1, SEQ ID NO:513 (protein)
chain: MTLKLYSFGPGANSLKPLATLYEKGLEFEQVFVDPSKFEQHSDWFKKINPRGQVPALWHDGKVVTESTVICEYLEDVFPESGNSLRPADPFKRAEMRVWTKWVDEYFCWCVSTIGWAFGIKAIAQKMSDEEFEEHINKNVPIPEQQLKWRRARNGFPQEMLDEEFRKVGVSVARLEETLSKQDYLVDTGYSLADICNFAIANGLQRPGGFFGDYVNQEKTPGLCAWLDRINARPAIKEMFEKSKREDLLKRQNEKVA
In the case of B1, the “total activity (beta-etherase)” value [1] is given as 558 rfu/ug and the “enzyme activity shown by gene product” value [2] is given as “β-etherase activity”.
